# Source: patent US20240116985A1, “STAPLED PEPTIDES AND METHODS THEREOF” (priority 2020, published 2024)
# Starred links: 1 amine or outer side, 2 acyl side, 3 side chain; linkers in the order of their positions; H or OH if unused. Positions of bridges follow the written chain, without caps; N, C: chain ends. Non-standard residues stand in square brackets, D forms with d. Primed or numbered codes have the meaning given here. PyrS2″ = (S)-3-amino-1-((pent-4-en-1-yloxy)carbonyl)pyrrolidine-3-carboxylic acid (stapling residue), C=CCCCOC(=O)N1CC[C@@](N[*:1])(C(=O)[*:2])C1; B5(16) = 2-amino-2-(pent-4-en-1-yl)hept-6-enoic acid = 2,2-bis(4-pentenyl)glycine (stitching residue), C=CCCCC(CCCC=C)(N[*:1])C(=O)[*:2]; B5(4) = 2,2-bis(4-pentenyl)glycine = 2-amino-2-(pent-4-en-1-yl)hept-6-enoic acid (stitching residue), C=CCCCC(CCCC=C)(N[*:1])C(=O)[*:2]; B5(5) = 2,2-bis(4-pentenyl)glycine, 2-amino-2-(pent-4-en-1-yl)hept-6-enoic acid (stitching residue), C=CCCCC(CCCC=C)(N[*:1])C(=O)[*:2]; TfeGA = (S)-2-amino-3-((carboxymethyl)(2,2,2-trifluoroethyl)amino)propanoic acid, O=C([C@H](CN(CC(=O)[*:3])CC(F)(F)F)N[*:1])[*:2]; PyrS2 = (S)-3-amino-1-((pent-4-en-1-yloxy)carbonyl)pyrrolidine-3-carboxylic acid, C=CCCCOC(=O)N1CC[C@@](N[*:1])(C(=O)[*:2])C1; B5(27) = 2-amino-2-(pent-4-en-1-yl)hept-6-enoic acid (two alkene side-chain arms), C=CCCCC(CCCC=C)(N[*:1])C(=O)[*:2]; MePpzAsn = (S)-2-amino-4-(4-methylpiperazin-1-yl)-4-oxobutanoic acid, CN1CCN(C(=O)C[C@H](N[*:1])C(=O)[*:2])CC1; F2PipNva = (S)-2-amino-5-(4,4-difluoropiperidin-1-yl)pentanoic acid, O=C([C@H](CCCN1CCC(F)(F)CC1)N[*:1])[*:2]; F2PipAbu = (S)-2-amino-4-(4,4-difluoropiperidin-1-yl)butanoic acid, O=C([C@H](CCN1CCC(F)(F)CC1)N[*:1])[*:2]; MePpzNva = (S)-2-amino-5-(4-methylpiperazin-1-yl)pentanoic acid, CN1CCN(CCC[C@H](N[*:1])C(=O)[*:2])CC1; MePpzAbu = (S)-2-amino-4-(4-methylpiperazin-1-yl)butanoic acid, CN1CCN(CC[C@H](N[*:1])C(=O)[*:2])CC1; 4TriA = (S)-2-amino-3-(1H-1,2,3-triazol-4-yl)propanoic acid, O=C([C@H](Cc1c[nH]nn1)N[*:1])[*:2]; MorphAsn = (S)-2-amino-4-morpholino-4-oxobutanoic acid, O=C(C[C@H](N[*:1])C(=O)[*:2])N1CCOCC1; B5(3) = 2,2-bis(4-pentenyl)glycine (stitching residue), C=CCCCC(CCCC=C)(N[*:1])C(=O)[*:2]; AspSH = (S)-2-amino-4-mercapto-4-oxobutanoic acid, O=C(C[C@H](N[*:1])C(=O)[*:2])S[*:3]; B5 = 2-amino-2-(pent-4-en-1-yl)hept-6-enoic acid, C=CCCCC(CCCC=C)(N[*:1])C(=O)[*:2]; MorphAbu = (S)-2-amino-4-morpholinobutanoic acid, O=C([C@H](CCN1CCOCC1)N[*:1])[*:2]; Phe(4-(3-Py)) = N[C@@H](Cc1ccc(-c2cccnc2)cc1)C(=O)O; Nva(5-morpholino) = N[C@@H](CCCN1CCOCC1)C(=O)O; Phe(3-CONH2) = NC(=O)c1cccc(C[C@H](N)C(=O)O)c1; Phe(2-CONH2) = NC(=O)c1ccccc1C[C@H](N)C(=O)O; Phe(2-Cl) = N[C@@H](Cc1ccccc1Cl)C(=O)O; Bta = N[C@@H](Cc1csc2ccccc12)C(=O)O; Lys(iPr) = CC(C)NCCCC[C@H](N)C(=O)O; αAllylPro = C=CC[C@@]1(C(=O)O)CCCN1; tBuAla = CC(C)(C)C[C@H](N)C(=O)O; 3Thi = N[C@@H](Cc1ccsc1)C(=O)O; Cha = N[C@@H](CC1CCCCC1)C(=O)O; S8 = C=CCCCCCC[C@](C)(N)C(=O)O; TfeGA″ = not defined here; hSer = N[C@@H](CCO)C(=O)O; Nle = CCCC[C@H](N)C(=O)O
# Target: full-length beta-Catenin (Uniprot ID P35222) (Homo sapiens (Human)) (UniProt P35222)
# Experiment: fluorescence polarization competition; displacement of 5FAM-TCF4(10-53) from full-length beta-catenin
row,IC50 [nM],Binder
1,89,"Ac-[αAllylPro]D[tBuAla][B5(4)]DDA[MePpzAbu]FL[PyrS2][3Thi][Bta]Q-NH2 (staple 1-4, 4-11) [I-1506: Ac-PL3-Asp-Npg-B5-Asp-Asp-Ala-MePpzAbu-Phe-Leu-PyrS2-3Thi-BztA-Gln-NH2]"
2,27,"Ac-[αAllylPro]DS[B5(4)]DDAAFL[PyrS2″][3Thi][Bta][hSer]-NH2 (staple 1-4, 4-11) [I-1514: Ac-PL3-Asp-Ser-B5-Asp-Asp-Ala-Ala-Phe-Leu-PyrS2-3Thi-BztA-Hse-NH2]"
3,17,"Ac-[αAllylPro]D[tBuAla][B5(3)]DD[Phe(4-(3-Py))]AFL[PyrS2″]F[Bta]Q-NH2 (staple 1-4, 4-11) [I-1489]"
4,46,"Ac-[αAllylPro]D[tBuAla][B5(27)]DDA[MorphAbu]FL[PyrS2][3Thi][Bta]Q-NH2 (staple 1-4, 4-11) [I-1504]"
5,17,"Ac-[αAllylPro]D[Nle][B5(5)]DEAAF[hSer][S8]F[Bta]Q-NH2 (staple 1-4, 4-11; also: staple isomer, earlier eluting HPLC peak) [I-1524: Ac-PL3-Asp-nLeu-B5-Asp-Glu-Ala-Ala-Phe-Hse-S8-Phe-BztA-Gln-NH2]"
6,5,"Ac-[αAllylPro]D[tBuAla][B5(27)]DDAAFL[PyrS2][3Thi][Bta]T-NH2 (staple 1-4, 4-11) [I-1494]"
7,6,"Ac-[αAllylPro]D[Nle][B5(5)]DEAAFQ[S8]F[Bta]Q-NH2 (staple 1-4, 4-11) [I-1522: Ac-PL3-Asp-nLeu-B5-Asp-Glu-Ala-Ala-Phe-Gln-S8-Phe-BztA-Gln-NH2]"
8,39,"Ac-[αAllylPro]D[tBuAla][B5(27)]DDA[F2PipAbu]FL[PyrS2][3Thi][Bta]Q-NH2 (staple 1-4, 4-11) [I-1505: Ac-PL3-Asp-Npg-B5-Asp-Asp-Ala-F2PipAbu-Phe-Leu-PyrS2-3Thi-BztA-Gln-NH2]"
9,38,"Ac-[αAllylPro]D[tBuAla][B5(4)]DDA[MePpzNva]FL[PyrS2][3Thi][Bta]Q-NH2 (staple 1-4, 4-11) [I-1503]"
10,46,"Ac-[αAllylPro]D[tBuAla][B5(27)]DDA[Nva(5-morpholino)]FL[PyrS2][3Thi][Bta]Q-NH2 (staple 1-4, 4-11) [I-1501]"
11,30,"Ac-[αAllylPro]DT[B5(5)]DDAAFL[PyrS2″][3Thi][Bta][hSer]-NH2 (staple 1-4, 4-11) [I-1516: Ac-PL3-Asp-Thr-B5-Asp-Asp-Ala-Ala-Phe-Leu-PyrS2-3Thi-BztA-Hse-NH2]"
12,5,"Ac-[αAllylPro]DY[B5(27)]DDAAFL[PyrS2][3Thi][Bta]Q-NH2 (staple 1-4, 4-11) [I-1511: Ac-PL3-Asp-Tyr-B5-Asp-Asp-Ala-Ala-Phe-Leu-PyrS2-3Thi-BztA-Gln-NH2]"
13,29,"Ac-[αAllylPro]D[Nle][B5(5)]DEAAFL[S8]F[Bta]Q-NH2 (staple 1-4, 4-11) [I-1523: Ac-PL3-Asp-nLeu-B5-Asp-Glu-Ala-Ala-Phe-Leu-S8-Phe-BztA-Gln-NH2]"
14,24,"Ac-[αAllylPro]DT[B5(5)]DDAAFL[PyrS2″][3Thi][Bta]Q-NH2 (staple 1-4, 4-11) [I-1515: Ac-PL3-Asp-Thr-B5-Asp-Asp-Ala-Ala-Phe-Leu-PyrS2-3Thi-BztA-Gln-NH2]"
15,50,"Ac-[αAllylPro]D[tBuAla][B5(27)]DDAAFL[PyrS2][3Thi][Bta]W-NH2 (staple 1-4, 4-11) [I-1497]"
16,87,"Ac-[αAllylPro]D[tBuAla][B5(4)]DDA[MePpzAsn]FL[PyrS2][3Thi][Bta]Q-NH2 (staple 1-4, 4-11) [I-1508: Ac-PL3-Asp-Npg-B5-Asp-Asp-Ala-MePpzAsn-Phe-Leu-PyrS2-3Thi-BztA-Gln-NH2]"
17,51,"Ac-[αAllylPro]D[tBuAla][B5(27)]DDAAFL[PyrS2][3Thi][Bta]F-NH2 (staple 1-4, 4-11) [I-1496]"
18,22,"Ac-[αAllylPro]D[Nle][B5(5)]DEAAF[hSer][S8]F[Bta]Q-NH2 (staple 1-4, 4-11) [I-1525: Ac-PL3-Asp-nLeu-B5-Asp-Glu-Ala-Ala-Phe-Hse-S8-Phe-BztA-Gln-NH2]"
19,24,"Ac-[αAllylPro]D[tBuAla][B5(27)]DDAAFL[PyrS2][3Thi][Bta]V-NH2 (staple 1-4, 4-11) [I-1495]"
20,23,"Ac-[αAllylPro]DN[B5(5)]DDAAFL[PyrS2″][3Thi][Bta][hSer]-NH2 (staple 1-4, 4-11) [I-1518: Ac-PL3-Asp-Asn-B5-Asp-Asp-Ala-Ala-Phe-Leu-PyrS2-3Thi-BztA-Hse-NH2]"
21,21,"Ac-[αAllylPro]DS[B5(5)]DDAAFL[PyrS2″][3Thi][Bta]Q-NH2 (staple 1-4, 4-11) [I-1513: Ac-PL3-Asp-Ser-B5-Asp-Asp-Ala-Ala-Phe-Leu-PyrS2-3Thi-BztA-Gln-NH2]"
22,34,"Ac-[αAllylPro]D[tBuAla][B5(27)]DDA[F2PipNva]FL[PyrS2][3Thi][Bta]Q-NH2 (staple 1-4, 4-11) [I-1502]"
23,48,"Ac-[αAllylPro]D[tBuAla][B5(27)]DDAAFL[PyrS2][3Thi][Bta][4TriA]-NH2 (staple 1-4, 4-11) [I-1498]"
24,10,"Ac-[αAllylPro]DF[B5(27)]DDAAFL[PyrS2][3Thi][Bta][hSer]-NH2 (staple 1-4, 4-11) [I-1510: Ac-PL3-Asp-Phe-B5-Asp-Asp-Ala-Ala-Phe-Leu-PyrS2-3Thi-BztA-Hse-NH2]"
25,30,"Ac-[αAllylPro]D[tBuAla][B5(27)]DDA[MorphAsn]FL[PyrS2][3Thi][Bta]Q-NH2 (staple 1-4, 4-11) [I-1507: Ac-PL3-Asp-Npg-B5-Asp-Asp-Ala-MorphAsn-Phe-Leu-PyrS2-3Thi-BztA-Gln-NH2]"
26,5,"Ac-[αAllylPro]D[tBuAla][B5(3)]DDAAFL[PyrS2″][3Thi][Bta]N-NH2 (staple 1-4, 4-11) [I-1492]"
27,32,"Ac-[αAllylPro]DN[B5(5)]DDAAFL[PyrS2″][3Thi][Bta]Q-NH2 (staple 1-4, 4-11) [I-1517: Ac-PL3-Asp-Asn-B5-Asp-Asp-Ala-Ala-Phe-Leu-PyrS2-3Thi-BztA-Gln-NH2]"
28,12,"Ac-[αAllylPro]DY[B5(5)]DDAAFL[PyrS2″][3Thi][Bta][hSer]-NH2 (staple 1-4, 4-11) [I-1512: Ac-PL3-Asp-Tyr-B5-Asp-Asp-Ala-Ala-Phe-Leu-PyrS2-3Thi-BztA-Hse-NH2]"
29,16,"Ac-[αAllylPro]D[Nle][B5(5)]DEAAFQ[S8]F[Bta]Q-NH2 (staple 1-4, 4-11; also: staple isomer, earlier eluting HPLC peak) [I-1521: Ac-PL3-Asp-nLeu-B5-Asp-Glu-Ala-Ala-Phe-Gln-S8-Phe-BztA-Gln-NH2]"

# Target: full-length beta-Catenin (Uniprot ID P35222) (Homo sapiens (Human)) (UniProt P35222)
# Experiment: fluorescence polarization competition; peptide titrated against 10 nM full-length beta-catenin + 10 nM 5FAM-TCF4(10-53)
row,IC50 [nM],Binder
1,224,"Ac-[αAllylPro]D[tBuAla][B5(4)]D[TfeGA]AAFL[PyrS2″][3Thi][Bta]T-NH2 (staple 1-4, 4-11; also: -CH=CH- in each staple reduced to -CH2-CH2-) [I-1716]"
2,19,"Ac-[αAllylPro]D[tBuAla][B5(4)]D[TfeGA]AAFL[PyrS2″][3Thi][Bta][Phe(2-CONH2)]-NH2 (staple 1-4, 4-11) [I-1707]"
3,1180,"Ac-[αAllylPro]N[Cha][B5(5)]DQ[Lys(iPr)]AFN[PyrS2″][Phe(3-CONH2)][Bta]Q-NH2 (staple 1-4, 4-11) [I-2164]"
4,382,"Ac-[αAllylPro]D[tBuAla][B5(5)]D[TfeGA]AAFL[PyrS2″][3Thi][Bta][Phe(3-CONH2)]-NH2 (staple 1-4, 4-11; also: staples hydrogenated: -CH=CH- reduced to -CH2-CH2-) [I-1718]"
5,9,"Ac-[αAllylPro]D[tBuAla][B5(16)]D[TfeGA]AAFL[PyrS2″][3Thi][Bta]N-NH2 (staple 1-4, 4-11) [I-1705]"
6,3720,"Ac-[αAllylPro]N[Cha][B5(5)]DQ[Lys(iPr)]AFL[PyrS2″][Phe(3-CONH2)][Bta]Q-NH2 (staple 1-4, 4-11) [I-2163]"
7,5000,"XDAXDEAAFVXXXQ (not fully specified; N-terminal Ac; PL3 at 1, B5 at 4, S8 at 11 (staples 1-4 and 4-11 by olefin metathesis); 2pyrA at 12; BztA at 13; C-terminal NH2) [I-383]"
8,139,"Ac-[αAllylPro][AspSH][tBuAla][B5]DDAAFN[PyrS2][Phe(2-Cl)][Bta]Q-NH2 (staple 1-4, 4-11; not fully specified) [I-1721]"
9,249,"Ac-[αAllylPro]D[tBuAla][B5(5)]D[TfeGA]AAFL[PyrS2″][3Thi][Bta][Phe(2-CONH2)]-NH2 (staple 1-4, 4-11; also: staples hydrogenated: -CH=CH- reduced to -CH2-CH2-) [I-1717]"
10,95,"Ac-[αAllylPro]D[tBuAla][B5(4)]D[TfeGA]AAFL[PyrS2″][3Thi][Bta]N-NH2 (staple 1-4, 4-11; also: -CH=CH- in each staple reduced to -CH2-CH2-) [I-1715]"
11,24,"Ac-[αAllylPro]D[tBuAla][B5(4)]D[TfeGA″]AAFL[PyrS2″][3Thi][Bta]T-NH2 (staple 1-4, 4-11; reading uncertain) [I-1706]"
12,29,"Ac-[αAllylPro]D[tBuAla][B5(4)]D[TfeGA]AAFL[PyrS2″][3Thi][Bta][Phe(3-CONH2)]-NH2 (staple 1-4, 4-11) [I-1708]"
